# Reference: the nanobody polyreactivity screen of Harvey et al. (2022)
# Assay: yeast display, Sf9 membrane polyspecificity reagent, FACS + sequencing; frameworks hold sequencing errors
# In short: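 Galactose induction of a Saccharomyces cerevisiae BJ5465 synthetic nanobody display library ran 36–48 hours. The cells were then stained for 1 hour at 4 °C with 10% biotinylated, detergent-solubilized Sf9 membrane reagent, pulled down on streptavidin microbeads and FACS-sorted into low and high (top ~1%) gates on expression and reagent-binding fluorescence. Labels for polyreactivity follow the gate of origin.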
row,Sequence,polyreactivity (PSR sort gate)
1,QVQLVESGGGLVQAGGSLRLSCAASGFIFDTNAMGWSRQAPGKDRELVARISSSAGSTYYAVSVKGRFTISRDNAKNTVYLLMNSLKPEDTAVYYCNADTGLGSLDFDKRDYWGQGTQVTVSS,low polyreactivity
2,QVQLVESGGGLVQAGGSLRLSCAASGFIFDTYAMGWYRQAPGKERELVAAISWTGTDTYYADSVKGRFTISRDNAKNTVYLQMNSLKPEDTAVYYCATDYGWLYINSIWEYDYWGQGTQVTVSS,high polyreactivity
3,QVQLVESGGGLVQAGGSLRLSCAASGFIFDWNTMGWYRQAPGKERELVAAITESSGSTYYADSVKGRFTISRDNAKNTVYLQMNSLKPEDTAVYYCAAELDVYVSIGSRFHFDYWGQGTQVTVSS,low polyreactivity
4,QVQLVESGGGLVQAGGSLRLSCAASGFIFDYNAMGWYRQAPGKERELVAAITSGGGSTYYADSVKGRFTISRDNAKNTVYLQMNSLKPEDTAVYYCNAVPSQHDEFDYWGQGTQVTVSS,low polyreactivity
5,QVQLVESGGGLVQAGGSLRLSCAASGFIFDYYAMGWYRQAPGKERELVAAITRDGGGTYYADSVKGRFTISRDNAKNTVYLQMNSLKPEDTAVYYCAARRAVRLYYWGQGTQVTVSS,high polyreactivity
6,QVQLVESGGGLVQAGGSLRLSCAASGFIFDYYAMGWYRQAPGKERELVAAITSRSGSTYYADSVKGRFTISRDNAKNTVYLQMNSLKPEDTAVYYCARRFKYGSTAWRFYYWGQGTQVTVSS,high polyreactivity
7,QVQLVESGGGLVQAGGSLRLSCAASGFIFDYYAMGWYRQAPGKERELVAAITWSGGSTYYADSVKGRFTISRDNAKYTVFLQMNSLKPEDTAVYYCNAYNWTYCEYEYWGQGTQVTVSS,high polyreactivity
8,QVQLVESGGGLVQAGGSLRLSCAASGFIFDYYAMGWYRQAPGTEREFVAAITWDGGSTYYADSVKGRFTISRDNAKNTVYLQMNSLKTEDTAVYYCAAETWGEYGYWGQGTQVTVSS,low polyreactivity
9,QVQLVESGGGLVQAGGSLRLSCAASGFIFDYYAMGWYRQAPVKERELVAAISWSGGSTYYADSVKGRFTISRDNAKNTVYLQMNSLKPEDTAVYYCNSYYQGYWGDFDYWGQGTQVTVSS,high polyreactivity
10,QVQLVESGGGLVQAGGSLRLSCAASGFIFDYYTMGWYRQAPGKERELVASIRSSGSSTYYADSVKGRFTISRDNAKNTVYLQMNSLKPEDTAVYYCARRYVVNRDWGDDYWGQGTQVTVSS,high polyreactivity
11,QVQLVESGGGLVQAGGSLRLSCAASGFIFEHYAMGWYRQAPGKERELVAAISRTGGRTYYADSVKGRFTISRDNAKNTVYLQMNSLKPEDTAVYYCAATAYSRLGVSSDYWGQGTQVTVSS,high polyreactivity
12,QVQLVESGGGLVQAGGSLRLSCAASGFIFELYAMGWYRQAPGKERDLVAVISYDGGSTYYADSVKGRFTISRDNAKNTVYLQMNSLKPEDTAVYYCNTYAGLVSPSDLYDYWGQGTQVTVSS,low polyreactivity
13,QVQLVESGGGLVQAGGSLRLSCAASGFIFEMYAMGWYRQAHGKERELVAAISSSGDSTYYADSVKGRFTISRDNEKNTVYLQMNSLIPEDNAVYYCATECGYALYDYWGQGTQVTVSS,low polyreactivity
14,QVQLVESGGGLVQAGGSLRLSCAASGFIFERYTMGWYRHAPGKERELVAAISDSGGSTYYADSVKGRFTISRDNAKNTVYLQMNSLKPEDTAVYYCAAKFRNYRPSKYYYWGQGTQVTVSS,high polyreactivity
15,QVQLVESGGGLVQAGGSLRLSCAASGFIFEYNAMGWYRQAPGKERELVAAITSSGGSTYYADSVKGRFTISRDNAKNTVYLQMNSLKPEDTAVYYCARVRRSAYYKDYYYWGQGTQVTVSS,high polyreactivity
16,QVQLVESGGGLVQAGGSLRLSCAASGFIFFPYVMGWYRQAPGKEREFVAAITGDGGSTYYADSVKGRFTISRDNAKNTVYLQMNSLKPEDTAVYYCAAEFGLWYWDWAASEDYWGQGTQVTVSS,high polyreactivity
17,QVQLVESGGGLVQAGGSLRLSCAASGFIFFTNAMGWYRQAPGKERELVAAITDDGSTYYADSVKGRFTISRDNAKNTVYLQMNSLKPEDTAVYYCNVVLQDPSYSWFWYDYDYWGQGTQVTVSS,high polyreactivity
18,QVQLVESGGGLVQAGGSLRLSCAASGFIFFYYAMGWYRQAPGKERELVAAISASGGSTYYADSVKGRFTISRDNAKNTVYLQLNSLKPEDTAVYYCAARYRKAESARWEYGYWGQGTQVTVSS,high polyreactivity
19,QVQLVESGGGLVQAGGSLRLSCAASGFIFGAYTMGWYRQAPGKESELVADISRRGGTTYYADSVKGRFTISRDNAKNTVYLQMNSLKPEDTAVYYCANVANFWYNTTLRGYYYWGQGTQVSVSS,high polyreactivity
20,QVQLVESGGGLVQAGGSLRLSCAASGFIFGDNAMGWYRQAPGKERELVAAITYSGGSTYYADSVKGRFTISRDYAKNTVYLQMNSLKPEDTAVYDCAASNQWSSTYLTYGYYYWGQGTQVTVSS,low polyreactivity
21,QVQLVESGGGLVQAGGSLRLSCAASGFIFGGYAMVWYRQAPGKERELVAAISSSGGSTYYADSVTGRFTISRDNAKNTVSLQMNSLKPEDTAVYYCAIVGWSRRYYYWGQGTQVTLSS,high polyreactivity
22,QVQLVESGGGLVQAGGSLRLSCAASGFIFGHYAMGWYRQAPGKERELVAAIRSRGGDRTYADSVKGRFTISRDNAKNTVYLQMNSLKPEDTAVYYCAADGPGTSEDDYWGQGTQVTVSS,high polyreactivity

row,Sequence,polyreactivity (PSR sort gate)
1,QVQLVESGGGLVQAGGSLRLSCAASGFIFGINAMGWYRQAPGKERELVATITSGGGTNYADSVKGRFTISRDNAKNTVYLQMNSLKPEDTAVYYCAKAPDTQTSWSRQEGNYWGQGTQVTVSS,low polyreactivity
2,QVQLVESGGGLVQAGGSLRLSCAASGFIFGKNAMGWYRQAPGKERELVAVISWRGSSTYYADSVKGRFTISRDNAKNTVYLQMNSLNPEDTAVYYCAARYPARGTLYYWGQGTQVTVSS,low polyreactivity
3,QVQLVESGGGLVQAGGSLRLSCAASGFIFGLNALGWYRPAPGKERELDAAIRSASSTNYADSVKGRFTISRDNAKNTVFLQMNSLKPEDTAVYYCAAEYVTYQQGFWGYDYWGQGTQVTVSS,low polyreactivity
4,QVQLVESGGGLVQAGGSLRLSCAASGFIFGLNAMGWYRQAPGKERELVAVIAFSGGSTYYADSVKGRFTISRDHAKNTVYLQMNSLKPEDTAVYYCNAVTRYPHPREYDYWGQGTQVTVSS,high polyreactivity
5,QVQLVESGGGLVQAGGSLRLSCAASGFIFGLNAMGWYRQAPGKERELVAVIAFSGGSTYYADSVKGRFTISRDNAKNTVYLQMNSLKPEDTAVYYCNAVTRYPHPREYDYWGQGTQVTVSS,high polyreactivity
6,QVQLVESGGGLVQAGGSLRLSCAASGFIFGLYAMGWYRQAPGKERELVAAISGSGGSTYYADSVKGRFTISRDNAKNTVYLQMNSLKPEDTAVYYCNRAQGVHTYVYRYGYWGQGTQVTVSS,low polyreactivity
7,QVQLVESGGGLVQAGGSLRLSCAASGFIFGLYAMGWYRQAPGKERELVAAISRRGGSTYYADSVKGRFTISLDNAKNTVYLQMNSLKPEDTAVYYCATDHSYIDDWGQGTEVTVSS,high polyreactivity
8,QVQLVESGGGLVQAGGSLRLSCAASGFIFGLYAMGWYRQAPGKERELVASISRRGGSTYYADSVKGRFTISRDNAKNTVYLQMNSLKPEDTAVYYCNAVGRLYLYGSWGQGTQVTVSS,high polyreactivity
9,QVQLVESGGGLVQAGGSLRLSCAASGFIFGPNAMGWYRQAPGKERELVAAIRWSGSRTYYADSVKGRFTISRDNAKNTVYLQMNSLKPEDTAVYYCATTYGYYTYDYWGQGTQVTVSS,high polyreactivity
10,QVQLVESGGGLVQAGGSLRLSCAASGFIFGPYAMGWYRQAPGKERELVADITIDSGSTYYADSVKGRFTISRDNAKNTVYLQMNSLKPEDTAVYYCATDYWNEYEYWGQGTQVTVSS,low polyreactivity
11,QVQLVESGGGLVQAGGSLRLSCAASGFIFGSNAMGWYRQAPGKERELVAAIDSSGGRTYYADSVKGRFTISRDNAKNTVYLQMISLKPEDTAVYYCNVYRWSQLFEYDYWGQGTQVTVSS,high polyreactivity
12,QVQLVESGGGLVQAGGSLRLSCAASGFIFGSYAMGWYRQAPGKERELVAAITSDGNTDYADSVKGRFTISRDNAKNTVYLQMNSLKPEDTAVYYCNKPYGAETALREFDYWGQGTQVTVSS,low polyreactivity
13,QVQLVESGGGLVQAGGSLRLSCAASGFIFGSYTMGWYRQAPGKERELVAAITTGGSTNYADSVKGRFTISRDNAKNTVYLQMNSLKPEDTAVYYCNAVWYYRGNPDIYGGLDYWGQGTQVTVSS,low polyreactivity
14,QVQLVESGGGLVQAGGSLRLSCAASGFIFGTNAMGWYRQAPGKERELVASISSTGGSTYYADSVKGRFTISRDNAKNTVYLQMNSLKPEDTAVYYCAADPYPEYIRYLPGVDYWGQGSQVTVSS,low polyreactivity
15,QVQLVESGGGLVQAGGSLRLSCAASGFIFGTYAMGWYRQAPGKERELVAAISSGGSTYYADSVKGRFTISRDNAKNTVYLQMNSLKPEDTAVYYCAKEGGTYRIFNYWGQGTQVTVSS,low polyreactivity
16,QVQLVESGGGLVQAGGSLRLSCAASGFIFGTYTMGWYRQAPGKERELVAAISKSSGSTYYADSVKGRFTISRDNAKNTVYLQMNSLKPEDTAVYYCAAPTRSYGTPPYDYWGQGTQVTVSS,low polyreactivity
17,QVQLVESGGGLVQAGGSLRLSCAASGFIFGWNAMGWYRQAPGKERELVATITRGSTYYADSVKGRFTISRDNAKNTVYLQMNSLKPEDTAVYYCNVVYYGRWANYDYWGQGTQVTVSS,low polyreactivity
18,QVQLVESGGGLVQAGGSLRLSCAASGFIFGWSGMGWYRLAPGKERELVAAITGSGVRTYYAASVKGRFTISRDNAENTVYLQMNRLKPEDTAVYYCARAGGYVGRGYKDQDGRGDYGGQGTQVTVSS,high polyreactivity
19,QVQLVESGGGLVQAGGSLRLSCAASGFIFGYNAMGWYRQAPGKEREFVAAISWTGGRTYYADSVKGRFTISRDNAKNTVYLQMNSLKPEDTAVYYCAALRGWLPGTRTRYYYWGQGTQVTVSS,high polyreactivity
20,QVQLVESGGGLVQAGGSLRLSCAASGFIFGYNAMGWYRQAPGKERELVAAITSRGDRTYYADSVKGRFTISRDNAKNTVYLQMNSLKPEDTAVYYCAKATRGYRSPYGSIGYYYWGLGTQVTVSS,high polyreactivity
21,QVQLVESGGGLVQAGGSLRLSCAASGFIFGYNAMGWYRQAPGKERELVAALDSGDSTYYADSVKGRFTLSRDNAKNTVYLQMNSLKPEDTAVYYCATDVTFVYDFGYFQFDYWGQGTQVTVSS,low polyreactivity
